Data as given in PMC12096946, “Structural analysis of genetic variants of the human tumor suppressor PALB2 coiled-coil domain” (Bioscience Reports, 2025).

Biological target: the molecule itself
Test: SEC; analytical size exclusion chromatography, Superdex75 column; 50 mM Na2HPO4, 150 mM NaCl, 5 mM DTT, pH 6.5; mass from molecular weight standards

Row | Protein | stoichiometry N | binding result
1 | GKPLSCEEKEKLKEKLAFLKREYSKTLARLQRAQRAE (domain or fragment, UniProt Q86YC2 6-42, looked up, PALB2 (partner and localizer of BRCA2), human, N-terminal coiled-coil domain, residues 6-42 of the 1186-amino-acid protein; A methionine was introduced before the domain for CNBr cleavage of the His-GB1 tag; The NMR sample was uniformly 13C,15N labelled; The methods of the CD experiments say that PALB2cc peptides were synthesized; also called wt-PALB2cc; source: E. coli BL21-DE3, purified …) [human PALB2 coiled-coil domain (PALB2cc, residues 6-42)] | 2 | 
2 | GKPLECEEKEKLKEKLAFLKREYEKTLARLQRAQRAE (peptide, UniProt Q86YC2 6-42, looked up, also called S10E, S29E phosphomimetic PALB2 coiled-coil domain; source: synthetic peptide (Lifetein technologies)) [S10E, S29E-PALB2cc] |  | binds
